In the supplement of paper PMC10126150:
± gives the standard deviation of the averaged measurements.

Test system: ATP
Experiment: switch fluorescence ratio, 500 uM ATP over buffer (Cy3 cluster intensity, sum of 5 cycles each) (fold (ratio)); higher = stronger signal-on switching upon ATP binding; sequences stand for … in TCGTCGGCAGCGTCAGATGTGTATAAGAGACAGTTTTTTTTTTTTTTTTTTTTTTTTT…TC
Conditions: aptamer strand: ATP DNA aptamer (quencher-CACCTGGGGGAGTATTGCGGAGGAAGG + anchor), 100 nM annealed; ATP concentration: 500 uM
Method in brief: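 Exposure to 500 uM ATP lasted 15 min at 22 °C before imaging, and a selection-buffer image was taken beforehand, for Cy3-labelled switching-strand clusters on a modified Illumina MiSeq flow-cell annealed to 100 nM quencher-labelled ATP aptamer. Five buffer/ATP cycles were run with NaOH stripping and re-annealing between them. The fluorescence ratio per cluster is summed target-cycle over summed buffer-cycle Cy3 intensity, averaged per switch-domain sequence. Clusters outside 100-1000 RFU were excluded.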

Row | Sequence | switch fluorescence ratio
1 | CCTTAGGGGG | 1.24 ± 0.33
2 | CCTTATTGTC | 0.997 ± 0.024
3 | CCTTATTTTC | 0.9984 ± 0.0059
4 | CCTTCTAGTT | 1.035 ± 0.0018
5 | CCTTGACGGG | 1.18 ± 0.17
6 | CCTTGAGGGC | 1.34 ± 0.38
7 | CCTTGAGGGG | 0.9925 ± 0.0036
8 | CCTTGCGGGA | 1.06 ± 0.011
9 | CCTTGTAGGG | 1.02 ± 0.03
10 | CCTTGTTTAA | 1.01 ± 0.086
11 | CCTTTAGGGT | 0.9997 ± 0.0014
12 | CCTTTATGGT | 0.983 ± 0.011
13 | CCTTTGCCGC | 1.58 ± 0.54
14 | CCTTTGCTGT | 1.073 ± 0.0024
15 | CCTTTGGGCT | 0.989 ± 0.025
16 | CGAAAAATGG | 1.04 ± 0.046
17 | CGAAAACTTT | 1.07 ± 0.064
18 | CGAAAAGAAT | 1.02 ± 0.029
19 | CGAAAATGGG | 0.9772 ± 0.0058
20 | CGAAAATTAA | 1 ± 0.047
21 | CGAAAGGGAC | 1.033 ± 0.0092
22 | CGAAAGTATA | 1.08 ± 0.075
23 | CGAAATACGG | 2.83 ± 0.18
24 | CGAAATGCTG | 1.09 ± 0.016
25 | CGAAATGTAA | 0.992 ± 0.024
26 | CGAACAGCGA | 1.27 ± 0.015

Row | Sequence | switch fluorescence ratio
27 | CGAACAGGTT | 1.04 ± 0.02
28 | CGAACCTTCG | 2.35 ± 0.092
29 | CGAACTGCAG | 1.034 ± 0.0016
30 | CGAAGAGGGG | 0.995 ± 0.016
31 | CGAAGATGGG | 0.981 ± 0.03
32 | CGAAGCGCCC | 4.36 ± 3
33 | CGAAGGCGTA | 1.027 ± 0.0062
34 | CGAAGGCTCG | 0.99 ± 0.04
35 | CGAAGGGCTA | 1.15 ± 0.19
36 | CGAAGTTATG | 1.06 ± 0.03
37 | CGAAGTTTGG | 1.02 ± 0.02
38 | CGAATAGGCG | 0.976 ± 0.048
39 | CGAATCGGCT | 1.05 ± 0.054
40 | CGAATGGGGA | 0.992 ± 0.077
41 | CGAATGTGGG | 1.0147 ± 0.00075
42 | CGAATTCCAC | 1.024 ± 0.0099
43 | CGAATTGGTA | 0.982 ± 0.011
44 | CGAATTTGCC | 1.01 ± 0.065
45 | CGAATTTGTC | 1.02 ± 0.035
46 | CGACCTTTTC | 1.4 ± 0.34
47 | CGACGAACTT | 1.236 ± 0.0059
48 | CGACTAAGAG | 1.02 ± 0.025
49 | CGACTATAGG | 1 ± 0.023
50 | CGACTTGAAA | 1.04 ± 0.041
51 | CGACTTGCGT | 1.01 ± 0.012
52 | CGACTTTCAA | 1.05 ± 0.032

Row | Sequence | switch fluorescence ratio
53 | CGAGAAATGG | 1.07 ± 0.055
54 | CGAGAAGAGT | 1.01 ± 0.053
55 | CGAGAGAGTG | 0.96 ± 0.02
56 | CGAGAGGGGG | 0.9723 ± 0.0065
57 | CGAGCAGAGT | 1.13 ± 0.021
58 | CGAGCATTTT | 1.14 ± 0.017
59 | CGAGCGACGT | 0.9863 ± 0.007
60 | CGAGCTGTTT | 1.02 ± 0.0099
61 | CGAGCTTATA | 1.38 ± 0.032
62 | CGAGGAATTT | 1.04 ± 0.043
63 | CGAGGATAGG | 0.999 ± 0.035
64 | CGAGGCGCG | 0.9537 ± 0.008
65 | CGAGGGAGGG | 0.999 ± 0.015
66 | CGAGGGCCGG | 0.9974 ± 0.0081
67 | CGAGGGGCTT | 0.997 ± 0.035
68 | CGAGGGGGCC | 0.97 ± 0.052
69 | CGAGGGGTTA | 1.01 ± 0.022
70 | CGAGGGGTTT | 0.984 ± 0.059
71 | CGAGGGTGTT | 1.05 ± 0.077
72 | CGAGGTGTAG | 0.98 ± 0.022
73 | CGAGGTTAAT | 1.051 ± 0.0011
74 | CGAGGTTAGG | 1.06 ± 0.062
75 | CGAGGTTATT | 1 ± 0.037
76 | CGAGGTTGGG | 1.002 ± 0.0028
77 | CGAGTAGAAT | 1.06 ± 0.065
78 | CGAGTCCTGT | 1 ± 0.02

Row | Sequence | switch fluorescence ratio
79 | CGAGTCGGGA | 0.999 ± 0.021
80 | CGAGTGCCCA | 0.996 ± 0.033
81 | CGAGTTAAAA | 1.002 ± 0.0069
82 | CGAGTTCGGC | 0.976 ± 0.06
83 | CGAGTTGCTG | 0.988 ± 0.11
84 | CGAGTTGGGG | 1.01 ± 0.031
85 | CGAGTTTCGG | 1.011 ± 0.0073
86 | CGAGTTTTTA | 0.994 ± 0.027
87 | CGATAACATG | 0.9984 ± 0.0051
88 | CGATAACTGG | 1.05 ± 0.052
89 | CGATAATCGT | 1.002 ± 0.0098
90 | CGATAGGCAA | 1.66 ± 0.9
91 | CGATAGGGGT | 1.05 ± 0.074
92 | CGATAGGTAC | 1.22 ± 0.027
93 | CGATATAGTC | 0.993 ± 0.049
94 | CGATATTTGG | 1 ± 0.02
95 | CGATCGGTTG | 0.9499 ± 0.0033
96 | CGATCTTTAC | 1.29 ± 0.017
97 | CGATGGCTGG | 0.976 ± 0.027
98 | CGATGGGGTG | 0.998 ± 0.025
99 | CGATGGTCGT | 0.975 ± 0.028
100 | CGATGGTTTT | 1.01 ± 0.044
101 | CGATGTAGTT | 0.995 ± 0.014
102 | CGATGTATAA | 1.01 ± 0.025
103 | CGATGTCAGC | 1.073 ± 0.0036
104 | CGATGTTTTG | 0.969 ± 0.031

Row | Sequence | switch fluorescence ratio
105 | CGATTATAGG | 1.003 ± 0.0096
106 | CGATTCGAGG | 1.03 ± 0.011
107 | CGATTGGGAC | 1.01 ± 0.02
108 | CGATTGGGTA | 0.968 ± 0.038
109 | CGATTTAAGG | 0.9947 ± 0.0063
110 | CGATTTGACT | 1.02 ± 0.037
111 | CGATTTTTTT | 1.02 ± 0.05
112 | CGCAAAAGCA | 1.2 ± 0.027
113 | CGCAATGGGG | 2.98 ± 0.53
114 | CGCAATTCGA | 3.57 ± 1.3
115 | CGCACCTGAG | 1.23 ± 0.044
116 | CGCACCTGTA | 1.04 ± 0.037
117 | CGCAGAAACG | 1 ± 0.036
118 | CGCAGAGCGA | 1.02 ± 0.0082
119 | CGCAGCGGTT | 1.49 ± 0.041
120 | CGCATAGGAC | 3.16 ± 0.28
121 | CGCATAGGGT | 1.13 ± 0.012
122 | CGCATAGTTG | 1.06 ± 0.024
123 | CGCATGAGGC | 1.18 ± 0.045
124 | CGCATGCTGG | 1.02 ± 0.024
125 | CGCATGGGCC | 1.4 ± 0.019
126 | CGCATGTCGA | 1.03 ± 0.025
127 | CGCATGTTTC | 1.2 ± 0.15
128 | CGCATTGGT | 1.31 ± 0.016
129 | CGCATTTAAG | 1.18 ± 0.046
130 | CGCATTTTGT | 1.06 ± 0.0043

Row | Sequence | switch fluorescence ratio
131 | CGCCAGATTT | 0.9963 ± 0.0072
132 | CGCCATAGTG | 1.01 ± 0.039
133 | CGCCATTACG | 1.65 ± 0.024
134 | CGCCCAAAGG | 1.13 ± 0.11
135 | CGCCCCGAGA | 1.02 ± 0.015
136 | CGCCCCGCTG | 1.13 ± 0.071
137 | CGCCCCTGAA | 0.997 ± 0.017
138 | CGCCCGCACG | 1.93 ± 0.5
139 | CGCCGATTAA | 1.03 ± 0.062
140 | CGCCGCGTCA | 1 ± 0.038
141 | CGCCGGGAGG | 0.989 ± 0.073
142 | CGCCTAAGTT | 1 ± 0.036
143 | CGCCTAGTCG | 1.02 ± 0.074
144 | CGCCTCAGGT | 1.46 ± 0.14
145 | CGCCTCGGGC | 1.02 ± 0.016
146 | CGCCTGGGCA | 1.02 ± 0.043
147 | CGCGAAAATG | 1.02 ± 0.022
148 | CGCGACGGGG | 1.03 ± 0.029
149 | CGCGACTGGT | 0.994 ± 0.014
150 | CGCGACTTAA | 1.044 ± 0.0047
151 | CGCGACTTTC | 1.09 ± 0.021
152 | CGCGAGAGGA | 1.01 ± 0.016
153 | CGCGAGCGTT | 0.995 ± 0.049
